Non-standard residues stand in square brackets, D forms with d. No end group written: not given here. Arg(Me2a) = CN(C)C(=N)NCCC[C@H](N)C(=O)O; Lys(Me3) = C[N+](C)(C)CCCC[C@H](N)C(=O)O; Arg(Me2s) = CN=C(NC)NCCC[C@H](N)C(=O)O; pT = C[C@@H](OP(=O)(O)O)[C@H](N)C(=O)O; Lys(Me2) = CN(C)CCCC[C@H](N)C(=O)O; pS = N[C@@H](COP(=O)(O)O)C(=O)O; Lys(Me) = CNCCCC[C@H](N)C(=O)O
T1: Bdf1 bromodomain 1 (GST-tagged, WT) (Saccharomyces cerevisiae (strain ATCC …, UniProt P35817))
T1 chain: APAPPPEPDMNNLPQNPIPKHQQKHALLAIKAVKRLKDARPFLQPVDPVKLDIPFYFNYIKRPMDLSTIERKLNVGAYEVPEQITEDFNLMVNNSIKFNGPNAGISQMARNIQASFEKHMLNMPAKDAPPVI

T2: Bdf1 bromodomain 2 (GST-tagged, WT) (Saccharomyces cerevisiae (strain ATCC …, UniProt P35817))
T2 chain: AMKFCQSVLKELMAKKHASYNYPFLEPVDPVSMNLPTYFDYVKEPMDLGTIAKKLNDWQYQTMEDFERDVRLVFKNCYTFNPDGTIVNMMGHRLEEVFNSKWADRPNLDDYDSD


Target: T1, Bdf1 bromodomain 1 (GST-tagged, WT)
Assay: histone peptide array probed with recombinant GST-bromodomain, signal normalised to myc peptide control

Question: ARTKQTARKSTGGKAPRKQ (A R T K Q T A R K pS T G G Kac A P R K Q) was tested. Which binding score did it give?
Answer: Its binding score is 0.0299.

Question: With PRKQLATKAA[Arg(Me2s)][Lys(Me2)][pS]APATGG as the binder, how does the binding score read?
Answer: The binding score was 0.017.

Question: Which binding score does the source give for SGRGKGGKGLGKGGAKRHR (S G R G K G G K G L G Kac G G A K R H R) here?
Answer: The binding score was 0.00448.

Question: Which binding score does the source give for A[Arg(Me2s)]T[Lys(Me)]QTA[Arg(Me2s)][Lys(Me2)]STGGKAPRKQ here?
Answer: Its binding score is 0.00197.

Question: For ARTKQTARKSTGGKAPRKQ (A R T K Q T A Rme2a Kme2 S pT G G K A P R K Q), which binding score is on record?
Answer: Its binding score is 0.00323.

Question: PRKQLATKAARK(Me)[pS]APATGG was tested. Which binding score did it give?
Answer: The binding score was 0.0151.

Question: With SGRGKQGGKARAK(Ac)AKSRSS [H2a 1-19] as the binder, how does the binding score read?
Answer: The binding score was 0.00932.

Question: SGRGKGGKGLGKGGAKRHR (S G Rme2s G K G G K G L G K G G A K R H R) was tested. Which binding score did it give?
Answer: The binding score was 0.00646.

Question: How did the binding score turn out when ARTKQTARKSTGGKAPRKQ (A R T K Q T A R K pS T G G K A P R K Q) was run?
Answer: Its binding score is 0.

Question: Which binding score does the source give for ARTKQTARKSTGGKAPRKQ (A R T K Q T A R Kme3 S T G G Kac A P R K Q) here?
Answer: The binding score was 0.0133.

Question: For ARTKQTA[Arg(Me2a)][Lys(Me3)]S[pT]GGKAPRKQ, which binding score is on record?
Answer: The binding score was 0.

Target: T2, Bdf1 bromodomain 2 (GST-tagged, WT)
Assay: as above

Question: Which binding score does the source give for ARTKQTARKSTGGKAPRKQ (A R T K Q T A R K pS T G G Kac A P R K Q) here?
Answer: Its binding score is 0.115.

Question: Which binding score does the source give for PRKQLATKAA[Arg(Me2s)][Lys(Me2)][pS]APATGG here?
Answer: Its binding score is 0.

Question: SGRGKGGKGLGKGGAKRHR (S G R G K G G K G L G Kac G G A K R H R) was tested. Which binding score did it give?
Answer: The binding score was 0.0271.

Question: How did the binding score turn out when A[Arg(Me2s)]T[Lys(Me)]QTA[Arg(Me2s)][Lys(Me2)]STGGKAPRKQ was run?
Answer: The binding score was 0.

Question: With ARTKQTARKSTGGKAPRKQ (A R T K Q T A Rme2a Kme2 S pT G G K A P R K Q) as the binder, how does the binding score read?
Answer: Its binding score is 0.

Question: Which binding score does the source give for PRKQLATKAARK(Me)[pS]APATGG here?
Answer: The binding score was 0.

Question: For SGRGKQGGKARAK(Ac)AKSRSS [H2a 1-19], which binding score is on record?
Answer: Its binding score is 0.0115.

Question: How did the binding score turn out when SGRGKGGKGLGKGGAKRHR (S G Rme2s G K G G K G L G K G G A K R H R) was run?
Answer: The binding score was 0.

Question: With ARTKQTARKSTGGKAPRKQ (A R T K Q T A R K pS T G G K A P R K Q) as the binder, how does the binding score read?
Answer: The binding score was 0.

Question: ARTKQTARKSTGGKAPRKQ (A R T K Q T A R Kme3 S T G G Kac A P R K Q) was tested. Which binding score did it give?
Answer: The binding score was 0.0479.

Question: For ARTKQTA[Arg(Me2a)][Lys(Me3)]S[pT]GGKAPRKQ, which binding score is on record?
Answer: Its binding score is 0.
